{"source": "paper PMC4072508", "about": "“Genome-Wide Prediction and Validation of Peptides That Bind Human Prosurvival Bcl-2 Proteins” (PLoS Computational Biology, 2014)", "binders": {"B1": {"name": "MINA (peptide)", "chain": "TVATRRLSGFLRTLADRLEGTKELLS"}, "B2": {"name": "POFUT2 (peptide)", "chain": "TRRSMVFARHLREVGDEFRSRHLNST"}, "B3": {"name": "DDX4 (peptide)", "chain": "FSKREKLVEILRNIGDERTMVFVETK"}, "B4": {"name": "SOS2 (peptide)", "chain": "LMARPAVALHFQSIADGFKEAVRYVL"}, "B5": {"name": "FBXO30 (peptide)", "chain": "LCQLSCVSKLMRDVCGSLLQSRGMVI"}, "B6": {"name": "MYCBP2 (peptide)", "chain": "AIILCNVCGNLCTDCDRFLHLHRRTK"}, "B7": {"name": "MCF2L (peptide)", "chain": "VDSIRPKCQELRHLCDQFSAEIARRR"}, "B8": {"name": "SYT1 (peptide)", "chain": "FVGYNSTGAELRHWSDMLANPRRPIA"}, "B9": {"name": "NBEAL2 (peptide)", "chain": "AELRLFLAQRLRWLCDSCPASRATCV"}}}
{"target": "Bcl-xL, Q07817", "sequence (Q07817 1-209)": "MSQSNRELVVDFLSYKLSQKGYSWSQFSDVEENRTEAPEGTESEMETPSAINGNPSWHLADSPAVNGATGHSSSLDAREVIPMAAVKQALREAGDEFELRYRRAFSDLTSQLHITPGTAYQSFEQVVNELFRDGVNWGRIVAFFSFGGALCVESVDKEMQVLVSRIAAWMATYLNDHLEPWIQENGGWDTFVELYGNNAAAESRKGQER", "experiment": "peptide SPOT array, c-Myc-tagged receptor at 1 uM or 100 nM, anti-c-Myc-Cy3"}
{"binder": "B1", "SPOT signal as a fraction of Bim BH3's signal on the same receptor and array": 0.91}
{"binder": "B2", "SPOT signal as a fraction of Bim BH3's signal on the same receptor and array": 1.91}
{"binder": "B3", "SPOT signal as a fraction of Bim BH3's signal on the same receptor and array": 0.14}
{"binder": "B4", "SPOT signal as a fraction of Bim BH3's signal on the same receptor and array": 0.85}
{"binder": "B5", "SPOT signal as a fraction of Bim BH3's signal on the same receptor and array": 0.62}
{"binder": "B6", "SPOT signal as a fraction of Bim BH3's signal on the same receptor and array": 0.8}
{"binder": "B7", "SPOT signal as a fraction of Bim BH3's signal on the same receptor and array": 1.26}
{"binder": "B8", "SPOT signal as a fraction of Bim BH3's signal on the same receptor and array": 1.41}
{"binder": "B9", "SPOT signal as a fraction of Bim BH3's signal on the same receptor and array": 1.24}
{"target": "T1, Bfl-1, Q16548", "T1 chain": "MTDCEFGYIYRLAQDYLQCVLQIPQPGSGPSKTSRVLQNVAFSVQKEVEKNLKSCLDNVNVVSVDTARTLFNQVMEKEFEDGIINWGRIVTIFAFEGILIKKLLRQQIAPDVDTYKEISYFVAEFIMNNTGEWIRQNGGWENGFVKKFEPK", "experiment": "peptide SPOT array, c-Myc-tagged receptor at 1 uM or 100 nM, anti-c-Myc-Cy3"}
{"binder": "B1", "SPOT signal as a fraction of Bim BH3's signal on the same receptor and array": 0.32}
{"binder": "B2", "SPOT signal as a fraction of Bim BH3's signal on the same receptor and array": 0.75}
{"binder": "B3", "SPOT signal as a fraction of Bim BH3's signal on the same receptor and array": 0.1}
{"binder": "B4", "SPOT signal as a fraction of Bim BH3's signal on the same receptor and array": 0.43}
{"binder": "B5", "SPOT signal as a fraction of Bim BH3's signal on the same receptor and array": 0.31}
{"binder": "B6", "SPOT signal as a fraction of Bim BH3's signal on the same receptor and array": 0.54}
{"binder": "B7", "SPOT signal as a fraction of Bim BH3's signal on the same receptor and array": 0.21}
{"binder": "B8", "SPOT signal as a fraction of Bim BH3's signal on the same receptor and array": 0.37}
{"binder": "B9", "SPOT signal as a fraction of Bim BH3's signal on the same receptor and array": 0.46}
{"target": "T2, Mcl-1, Q07820", "T2 chain": "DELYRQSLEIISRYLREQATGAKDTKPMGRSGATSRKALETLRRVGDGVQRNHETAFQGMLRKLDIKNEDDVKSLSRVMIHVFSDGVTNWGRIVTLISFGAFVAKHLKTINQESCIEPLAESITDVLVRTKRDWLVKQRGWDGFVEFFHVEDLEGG", "experiment": "peptide SPOT array, c-Myc-tagged receptor at 1 uM or 100 nM, anti-c-Myc-Cy3"}
{"binder": "B1", "SPOT signal as a fraction of Bim BH3's signal on the same receptor and array": 0.36}
{"binder": "B2", "SPOT signal as a fraction of Bim BH3's signal on the same receptor and array": 1.67}
{"binder": "B3", "SPOT signal as a fraction of Bim BH3's signal on the same receptor and array": 0.35}
{"binder": "B4", "SPOT signal as a fraction of Bim BH3's signal on the same receptor and array": 1.08}
{"binder": "B5", "SPOT signal as a fraction of Bim BH3's signal on the same receptor and array": 0.28}
{"binder": "B6", "SPOT signal as a fraction of Bim BH3's signal on the same receptor and array": 0.29}
{"binder": "B7", "SPOT signal as a fraction of Bim BH3's signal on the same receptor and array": 0.24}
{"binder": "B8", "SPOT signal as a fraction of Bim BH3's signal on the same receptor and array": 0.32}
{"binder": "B9", "SPOT signal as a fraction of Bim BH3's signal on the same receptor and array": 1.01}
{"target": "T3, Bcl-2, P10415", "T3 chain": "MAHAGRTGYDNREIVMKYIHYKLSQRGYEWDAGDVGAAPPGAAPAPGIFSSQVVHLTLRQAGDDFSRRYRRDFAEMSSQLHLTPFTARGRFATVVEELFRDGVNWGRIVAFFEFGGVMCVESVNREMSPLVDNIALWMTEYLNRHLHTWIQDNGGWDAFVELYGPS", "experiment": "fluorescence polarisation, direct titration of receptor into 10 nM labelled peptide", "units": {"Kd": "µM"}}
{"binder": "B1", "Kd": 0.266}
{"binder": "B2", "Kd": 0.098}
{"binder": "B3", "Kd": "> 3.04"}
{"binder": "B4", "Kd": 3.29}
{"binder": "B5", "Kd": 2.56}
{"binder": "B6", "Kd": 1.18}
{"binder": "B7", "Kd": 0.006}
{"binder": "B8", "Kd": "> 100"}
{"binder": "B9", "Kd": 0.016}
{"target": "T4, Bcl-w, Q92843", "T4 chain": "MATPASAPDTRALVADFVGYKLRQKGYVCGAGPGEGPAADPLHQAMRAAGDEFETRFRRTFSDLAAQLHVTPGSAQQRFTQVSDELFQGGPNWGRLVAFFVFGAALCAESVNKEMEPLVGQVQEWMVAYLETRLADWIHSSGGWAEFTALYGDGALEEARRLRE", "experiment": "fluorescence polarisation, direct titration of receptor into 10 nM labelled peptide", "units": {"Kd": "µM"}}
{"binder": "B1", "Kd": 1.23}
{"binder": "B2", "Kd": 0.098}
{"binder": "B3", "Kd": "> 4.35"}
{"binder": "B4", "Kd": 5.38}
{"binder": "B5", "Kd": 3.28}
{"binder": "B6", "Kd": 4.07}
{"binder": "B7", "Kd": 0.007}
{"binder": "B8", "Kd": "> 4.35"}
{"binder": "B9", "Kd": 0.029}
{"target": "Bcl-xL, Q07817", "experiment": "fluorescence polarisation, direct titration of receptor into 10 nM labelled peptide", "units": {"Kd": "µM"}}
{"binder": "B1", "Kd": 1.01}
{"binder": "B2", "Kd": 0.039}
{"binder": "B3", "Kd": "> 4"}
{"binder": "B4", "Kd": "> 6.9"}
{"binder": "B5", "Kd": "> 10"}
{"binder": "B6", "Kd": "> 10"}
{"binder": "B7", "Kd": 0.004}
{"binder": "B8", "Kd": "> 6.9"}
{"binder": "B9", "Kd": 0.01}
{"target": "T1, Bfl-1, Q16548", "experiment": "fluorescence polarisation, direct titration of receptor into 10 nM labelled peptide", "units": {"Kd": "µM"}}
{"binder": "B1", "Kd": 1.13}
{"binder": "B2", "Kd": "> 2.28"}
{"binder": "B3", "Kd": "> 3.37"}
{"binder": "B4", "Kd": "> 3.29"}
{"binder": "B5", "Kd": "> 10"}
{"binder": "B6", "Kd": "> 3.37"}
{"binder": "B7", "Kd": "> 4.1"}
{"binder": "B8", "Kd": "> 3.37"}
{"binder": "B9", "Kd": 3.27}
{"target": "T2, Mcl-1, Q07820", "experiment": "fluorescence polarisation, direct titration of receptor into 10 nM labelled peptide", "units": {"Kd": "µM"}}
{"binder": "B1", "Kd": "> 10"}
{"binder": "B2", "Kd": "> 10"}
{"binder": "B3", "Kd": 0.142}
{"binder": "B4", "Kd": "> 4"}
{"binder": "B5", "Kd": "> 10"}
{"binder": "B6", "Kd": "> 10"}
{"binder": "B7", "Kd": "> 4"}
{"binder": "B8", "Kd": "> 4"}
{"binder": "B9", "Kd": 3.81}
